Test results taken from PMC7979749, “Structural basis of the dynamic human CEACAM1 monomer-dimer equilibrium” (Communications Biology, 2021).

Experiments:
[1] = target: CEACAM1 IgV (Homo sapiens) (UniProt P13688); conditions: cited from earlier work
TIM-3 IgV (Homo sapiens) = TIM-3 IgV (Homo sapiens) (UniProt Q8TDQ0); conditions: cited from earlier work
[2] = target: human CEACAM1 IgV domain, N97A mutant (human) (UniProt P13688); test: NMR titration; 15N-HSQC spectra at varying protein concentration (N97A 16-500 μM; WT 10 μM and 1 mM); 10 mM HEPES, 50 mM NaCl, pH 7.0, 25 °C; dimer to monomers; rough estimate from peak trajectories of Q44 and A49
[3] = target: the molecule itself; test: SEC-MALS; samples at 100 μM injected onto TSK-gel Bioassist G4SWxl, 10 mM HEPES pH 7.4, 150 mM, 0.5 mL/min; self-association, monomer to dimer
[4] = target: the molecule itself; test: crystal structure; mutant proteins concentrated to 10 mg/ml (exceeding 800 μM); molecular replacement with PDB 4QXW; self-association in the asymmetric unit

TIM-3 IgV (Homo sapiens), sequence (Q8TDQ0 22-124): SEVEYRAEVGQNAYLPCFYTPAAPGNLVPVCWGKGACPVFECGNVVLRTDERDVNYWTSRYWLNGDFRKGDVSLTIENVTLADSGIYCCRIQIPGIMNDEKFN

In the case of CEACAM1 IgV (from UniProt P13688), the Kd [1] is listed as 0.45 µM and the Kd (TIM-3 IgV (Homo sapiens)) is listed as 2.5 µM.

“human CEACAM1 IgV domain, N97A mutant (from UniProt P13688 35-141) (domain or fragment)” gave a Kd [2] of over 1000 µM.

B1: human CEACAM1 IgV domain, wildtype (domain or fragment)
chain: AQLTTESMPFNVAEGKEVLLLVHNLPQQLFGYSWYKGERVDGNRQIVGYAIGTQQATPGPANSGRETIYPNASLLIQNVTQNDTGFYTLQVIKSDLVNEEATGQFHVY
notes: Carcinoembryonic antigen-related cell adhesion molecule 1 (CEACAM1), human, N-terminal IgV domain; NMR samples were 15N/13C or 15N/13C/2H labelled; also called hCEACAM1 WT IgV; WT; source: isotope-labelled samples expressed from E. coli in M9 minimal medium, purified
With B1 the “stoichiometry N” value [3] was 2.

B2: human CEACAM1 IgV domain, V39A mutant (domain or fragment)
chain: QLTTESMPFNVAEGKEVLLLVHNLPQQLFGYSWYKGERADGNRQIVGYAIGTQQATPGPANSGRETIYPNASLLIQNVTQNDTGFYTLQVIKSDLVNEEATGQFHVY
notes: unglycosylated; also called hCEACAM1 V39A
B2: binds [3].

B3: human CEACAM1 IgV domain, I91A mutant (domain or fragment)
chain: QLTTESMPFNVAEGKEVLLLVHNLPQQLFGYSWYKGERVDGNRQIVGYAIGTQQATPGPANSGRETIYPNASLLIQNVTQNDTGFYTLQVAKSDLVNEEATGQFHVY
notes: unglycosylated
B3: binds [4].
